# B1: 38D9B3.11/sp34.24 (bispecific antibody, human IgG1, kappa, lambda, L234A L235A)
# heavy 1: not shown
# light 1: EIVLTQSPATLSLSPGERATLSCKASQSVDHDVDSYMDWYQQKPGQAPRLLIYSASNLESGIPARFSGSGSGTDFTLTISSLEPEDFAVYYCQQINEYPYTFGGGTKVEIKRTVAAPSVFIFPPSDEQLKSGTASVVCLLNNFYPREAKVQWKVDNALQSGNSQESVTEQDSKDSTYSLSSTLTLSKADYEKHKVYACEVTHQGLSSPVTKSFNRGEC
# heavy 2: not shown
# light 2: QAVVTQEPSLTVSPGGTVTLTCRSSTGAVTTSNYANWVQQKPGQAPRGLIGGTNKRAPGVPARFSGSLLGDKAALTLLGAQPEDEAEYYCALWYSNLWVFGQGTKLTVLGQPKAAPSVTLFPPSSEELQANKATLVCLISDFYPGAVTVAWKADSSPVKAGVETTTPSKQSNNKYAASSYLSLTPEQWKSHRSYSCQVTHEGSTVEKTVAPTECS
# notes: also called 38D9B3.11 x HzSP34.24
# B2: 34F1.14/sp34.24 (bispecific antibody, human IgG1, kappa, lambda, L234A L235A)
# heavy 1: not shown
# light 1: DVVMTQSPLSLPVTLGQPASISCKSSLSLLDSEGKTYLNWFQQRPGQSPRPLISLVSKLDSGVPDRFSGSGSGTDFTLKISRVEAEDVGVYYCWQGTHFPLTFGGGTKVEIKRTVAAPSVFIFPPSDEQLKSGTASVVCLLNNFYPREAKVQWKVDNALQSGNSQESVTEQDSKDSTYSLSSTLTLSKADYEKHKVYACEVTHQGLSSPVTKSFNRGEC
# heavy 2: not shown
# light 2: QAVVTQEPSLTVSPGGTVTLTCRSSTGAVTTSNYANWVQQKPGQAPRGLIGGTNKRAPGVPARFSGSLLGDKAALTLLGAQPEDEAEYYCALWYSNLWVFGQGTKLTVLGQPKAAPSVTLFPPSSEELQANKATLVCLISDFYPGAVTVAWKADSSPVKAGVETTTPSKQSNNKYAASSYLSLTPEQWKSHRSYSCQVTHEGSTVEKTVAPTECS
# notes: also called 34F1.14 x HzSP34.24
# B3: 11G10.9.p1/sp34.24 (bispecific antibody, human IgG1, kappa, lambda, L234A L235A)
# heavy 1: not shown
# light 1: DIVMTQTPLSLSVTPGQPASISCKSSQSLLDSEGKTYLNWLLQKPGQSPQSLIYLVSKLDSGVPDRFSGSGSGTDFTLKISRVEAEDVGVYYCWQGTHFPLTFGGGTKVEIKRTVAAPSVFIFPPSDEQLKSGTASVVCLLNNFYPREAKVQWKVDNALQSGNSQESVTEQDSKDSTYSLSSTLTLSKADYEKHKVYACEVTHQGLSSPVTKSFNRGEC
# heavy 2: not shown
# light 2: QAVVTQEPSLTVSPGGTVTLTCRSSTGAVTTSNYANWVQQKPGQAPRGLIGGTNKRAPGVPARFSGSLLGDKAALTLLGAQPEDEAEYYCALWYSNLWVFGQGTKLTVLGQPKAAPSVTLFPPSSEELQANKATLVCLISDFYPGAVTVAWKADSSPVKAGVETTTPSKQSNNKYAASSYLSLTPEQWKSHRSYSCQVTHEGSTVEKTVAPTECS
# notes: also called 11G10.9.p1 x HzSP34.24
# Key:
# [1] = target: T1, CD79b on the surface of B-cell non-Hodgkin's lymphoma cells (human, UniProt P40259 29-229); assay: flow cytometry on BJAB cells, goat anti-human IgG PE
# T1 construct: whole, on cells; Endogenous CD79b of the cell lines; on cells it stands in the B cell receptor complex with CD79a; also called CD79b on Ramos cells; CD79b on BJAB cells
# T1 sequence (looked up): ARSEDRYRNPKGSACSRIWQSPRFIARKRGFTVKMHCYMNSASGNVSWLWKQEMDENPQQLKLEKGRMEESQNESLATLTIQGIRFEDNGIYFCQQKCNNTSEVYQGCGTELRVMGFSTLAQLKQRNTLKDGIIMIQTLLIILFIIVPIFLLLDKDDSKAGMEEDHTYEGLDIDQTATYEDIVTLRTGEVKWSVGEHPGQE
# Experimental: (§1) The binding ability of the CD79b/CD3 bispecific antibodies for CD79b-positive B-cell non-Hodgkin's lymphoma cell lines was detected by flow cytometry.
# (§2) BJAB (AddexBio, USA, Cat #C0003016) and WSU-DLCL2 (Nanjing Kebai Biotechnology Co., Ltd., Cat #CBP60273) were cultured and passaged according to the conventional procedures. Cells were counted after centrifugation and resuspension, adjusted to a density of 4×10⁶ cells/mL, poured into a loading tank, and seeded to a 96-well plate at 50 μL/well using a multichannel pipettor. 50 μL of the antibody sample diluted in gradient was added to the 50 μL of cells in each well, and the mixture was then incubated in an incubator at 5% CO₂ and 37° C. for 30 min. The mixture was centrifuged at 400 g for 5 min, then 200 μL of PBS was added, and the resulting mixture was centrifuged at 400 g for 5 min. This procedure was repeated 3 times. Goat anti-human IgG PE (1:200) was added, and the mixture was incubated for 30 min in the dark at room temperature. The mixture was washed with 200 μL of PBS twice, centrifuged, and then resuspended in 100 μL of PBS, and the values were read using a flow cytometer. The values were fitted to obtain a curve and EC₅₀ values were calculated.
# [2] = target: T2, human CD3E & CD3G-biotin (Sino biological) (human, UniProt P07766 23-126; P09693 23-116, limits assumed); assay: SPR (Biacore T200), biotinylated CD3E&CD3G on streptavidin chip, antibody injected
# T2 construct: also called Human CD3E&G
# T2 sequence (P07766 23-126 limits assumed, chain 1 of 2): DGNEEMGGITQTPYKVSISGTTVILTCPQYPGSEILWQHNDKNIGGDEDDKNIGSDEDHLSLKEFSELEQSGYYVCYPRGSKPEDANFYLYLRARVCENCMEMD
# T2 sequence (P09693 23-116 limits assumed, chain 2 of 2): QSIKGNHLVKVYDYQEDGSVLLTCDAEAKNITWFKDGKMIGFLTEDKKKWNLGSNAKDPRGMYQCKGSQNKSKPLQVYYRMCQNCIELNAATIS
# Experimental: (§3) The binding kinetics of exemplary anti-CD79b/CD3 antibodies of the present invention for human CD79b, human CD3, and cynomolgus monkey CD3 were determined using surface plasmon resonance (Biacore T200). (1) Affinity assay of antibodies for human CD79b-his (Sino biological): 50 mM N-hydroxysuccinimide (NHS) and 200 mM 1-ethyl-3-(3-dimethylaminopropyl) carbodiimide hydrochloride (EDC) were freshly mixed and activated for 420 s at a flow rate of 10 μL/min. Human CD79b-His antigen was then diluted in 10 mM Acetate (pH 5.0), and after dilution to a concentration of 1 μg/mL, the antigen solution was subjected to coupling and the value was approximately 50 RU. Then 1 M ethanolamine was injected at a flow rate of 10 μL/min for 420 s to block the remaining activation sites. The buffer used in the experiment was HBS-EP+ solution at pH 7.4, and under a high performance mode, the antibodies obtained after 2-fold gradient dilution (0-80 nM) were each injected, according to an ascending order based on concentrations, into the channels 1, 2, 3 and 4 of the chip at a flow rate of 30 μL/min, wherein one cycle was used for determination of one concentration, the binding time was 180 s, and the dissociation time was 600 s. (2) Affinity assay of antibodies for human CD3E & CD3G-biotin (Sino biological) and monkey CD3E & CD3G-biotin (Sino biological): 50 mM NHS and 200 mM EDC were freshly mixed and activated for 420 s at a flow rate of 10 μL/min. Streptavidin (Thermo Fisher scientific) protein was then diluted in 10 mM Acetate (pH 4.5) and after dilution to a concentration of 10 μg/mL, the antigen solution was subjected to coupling and the value was approximately 3000 RU. Then 1 M ethanolamine was injected at a flow rate of 10 μL/min for 420 s to block the remaining activation sites. Human CD3E & CD3G-biotin and monkey CD3E & CD3G-biotin proteins were each immobilized on the chip channels coupled with Streptavidin protein. The antibodies (0-16 nM or 0-40 nM or 0-200 nM) obtained after 2-fold gradient dilution were each injected, according to an ascending order based on concentrations, into the channels 1, 2, 3 and 4 of the chip at a flow rate of 30 μL/min, wherein one cycle was used for determination of one concentration, the binding time was 180 s, and the dissociation time was 300 s.
# [3] = target: T1, CD79b on the surface of B-cell …; assay: flow cytometry on WSU-DLCL2 cells, goat anti-human IgG PE
# Experimental: as §1, §2
# [4] = target: T3, monkey CD3E & CD3G-biotin (Sino biological) (cynomolgus monkey, UniProt Q95LI5 22-117; Q95LI7 23-113, limits assumed); assay: SPR (Biacore T200), biotinylated monkey CD3E&CD3G on streptavidin chip, antibody injected
# T3 construct: also called Cyno CD3E&G; monkey CD3E&G
# T3 sequence (looked up) 1: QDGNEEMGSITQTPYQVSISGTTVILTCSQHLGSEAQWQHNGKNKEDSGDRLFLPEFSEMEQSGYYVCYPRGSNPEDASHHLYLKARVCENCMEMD
# T3 sequence (looked up) 2: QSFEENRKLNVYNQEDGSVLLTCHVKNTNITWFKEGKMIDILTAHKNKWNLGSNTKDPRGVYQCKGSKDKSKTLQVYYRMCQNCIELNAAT
# Experimental: as §3
# [5] = target: T4, human CD79b-his (Sino biological) (human, UniProt P40259 29-159); assay: SPR (Biacore T200), CD79b-His coupled to chip, antibody injected
# T4 construct: Amine-coupled to the Biacore chip (about 50 RU); not shown: His tag
# T4 sequence (looked up): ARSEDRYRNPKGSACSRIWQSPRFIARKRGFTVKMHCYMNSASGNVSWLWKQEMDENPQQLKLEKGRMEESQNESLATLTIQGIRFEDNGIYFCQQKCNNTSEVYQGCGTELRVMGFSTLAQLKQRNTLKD
# Experimental: as §3
Binder,EC50 (read off the curve) [1],Kd [2],koff [2],kon [2],EC50 (read off the curve) [3],Kd [4],koff [4],kon [4],Kd [5],koff [5],kon [5]
B1,~5 nM,6.19 nM,0.00565 s⁻¹,912000 M⁻¹ s⁻¹,~10 nM,10.9 nM,0.00656 s⁻¹,603000 M⁻¹ s⁻¹,0.787 nM,0.000268 s⁻¹,341000 M⁻¹ s⁻¹
B2,~60 nM,4.99 nM,0.00512 s⁻¹,1.03e+06 M⁻¹ s⁻¹,–,8.75 nM,0.00593 s⁻¹,678000 M⁻¹ s⁻¹,3.1 nM,0.00161 s⁻¹,519000 M⁻¹ s⁻¹
B3,~20 nM,6.25 nM,0.00531 s⁻¹,851000 M⁻¹ s⁻¹,~30 nM,10.7 nM,0.0061 s⁻¹,570000 M⁻¹ s⁻¹,2.16 nM,0.00176 s⁻¹,815000 M⁻¹ s⁻¹

# Source: patent US20240343799A1 (Innovent, published 2024)
